One series addresses T1, CD33 (Homo sapiens, UniProt P20138).
T1 construct: endogenous in cells; host or cells: HL-60 cells
The experiment in a line: Binding to CD33-positive HL-60 cells by flow cytometry. Particulars: FIG. 2. As for the experimental part: Binding to CD33-positive HL-60 cells were studied by flow cytometry. The determination of EC50 based on the plotted curve gives an approximate value for the affinity. The commercially available mouse anti human CD33 (BD Pharmingen; #555450, 1 mg/mL) was used as a reference antibody for assessment of the affinity, including a setup with a 50:50 mixture with the mAb to be analyzed. This assay was also used to confirm that target binding affinity was not negatively affected by conjugation with the chelator.
HL-60 cells were grown in Iscove's Modified Dulbecco's Medium (IMDM; Invitrogen; #12440-046) in the presence of 20% of fetal bovine serum and penicillin/streptomycin. […] Subsequently, 20 μL of the preparation of resuspended cells was diluted 1:500 in Coulter Isoton II Diluent, and counted using a Beckman Coulter Z2 instrument (Beckman Coulter; CA, USA). […]
The mAb or conjugate to be analyzed was prepared fresh form frozen stock by shifting the storage buffer to PBS, kept at 4° C., and used within a few days after preparation. […]
The cells were washed twice, as described above, and re-suspended in 200 μL PBS, supplemented with 0.1% BSA. All samples were analysed in 96-well round or conical bottom plates. Fluorescent signals were recorded on a Beckham Coulter Cell lab Quant SC flow cytometer (Beckman Coulter; CA, USA). […]
(In general: Flow cytometry measures light scatter and fluorescence of single cells or particles in a stream.)

Series [1] relates to HL-60 tumour. Nature of the series: Biodistribution in HL-60 tumour bearing nude mice. Particulars: 15 kBq/animal intravenous, HL-60 xenograft.
Description: Female NMRI nude mice were xenografted with cells from the human HL-60 tumour cell line. […] 54 female NMRI nude mice (Taconic, Europe) were used in the study.
The animals were allowed an acclimation period of at least 5 days before entering the study and were at an age of 4 weeks before tumour inoculation. […] Animals were kept in individually ventilated cages (IVC, Scanbur) with HEPA filtered air and had ad libitum access to “Rat and mouse nr.3 Breeding” diet (Scanbur BK) and water acidified by addition of HCl to a molar concentration of 1 mM (pH 3.0). HL-60 cells (ATCC/United Kingdom; Catalog Number CCL-240) were grown and prepared for subcutaneous inoculation in IMDM (Invitrogen; #12440-046) in presence of 20% FCS and penicillin/streptomycin. […]
Animals were euthanized at predetermined time points post injection, and blood, muscle, femur, kidneys, lung, liver, stomach, small intestine, large intestine and tumour were collected. Tissues and blood samples were weighed, and the radioactivity in each sample was measured using gamma spectroscopy (HPGe15p or HPGe50p germanium detectors).
The measured radioactivity (Bq) was related to the radioactivity measured in 10% injection standard samples, and the percentage of Th-227 and Ra-223 were calculated and presented as % ID or % ID per gram of tissue.
The test system of series [2] is CD33 positive HL-60 cells. Nature of the series: Th-227-induced cell cytotoxicity (ATP, CellTiter-Glo) in HL-60 cells. It counts as cell-based, human. Particulars: 3 nM or 0.3 nM, 44 kBq/μg, up to day 7. As for the experimental part:
In vitro cell cytotoxicity was investigated in CD33 positive HL-60 cells. AGC0715 and the control trastuzumab conjugated AGC0015 were used to chelate Th-227 to a specific activity of 44 kBq/μg. HL-60 cells were grown at 37° C. with 5% CO2, and split 1:5 three times a week. The day before the assay the culture medium (Iscove's Modified Dulbecco's Medium (IMDM) with 20% FBS and 1% Penicillin/Streptomycin) was replaced by new medium and the volume adjusted to give 400 000 cells per mL.
About, 1 600 000 cell (4 mL) were added to each well in a 6 well plate. The plate was incubated until next day for addition of labelled mAb, or culture medium. After adding labelled mAb, or culture medium, the plate was incubated for 4 additional hours. In one experiment AGC0715 or trastuzumab-AGC0015 was added to each well to a final concentration of 3 nM. In another experiment the final concentration was 0.3 nM.
Following incubation, the cells were washed twice in culture medium, and the ATP in the supernatant and in the pellet was measured. The cells were then split 1:2 and incubated in culture medium at 37° C. with 5% CO2. The same procedure, but with only one wash, was repeated at days 2, 4, and 7.
In general terms: In ATP-based viability assays light output follows the ATP content of the culture.

Series [3] relates to HL-60 tumour. Details: species or system mice. The following applies: mouse, in vivo. As for the experimental part: Cell preparation and xenografting of female NMRI nude mice are done as described in Example 9. […] The mice have an approximated body weight of approximately 20 grams at the start of the study. […] Mice will be inoculated with tumour cells about 10 days before dosing in order to have mice with average size of tumours in the range from 75-150 mm3. Animals are randomized into 4 treatment groups and 3 control groups (n=10/group).
Mice in the treatment groups are injected into the tail vein with 100 μL containing 75 kBq/mL, 150 kBq/mL, 225 kBq/mL or 300 kBq/mL AGC0715-Th-227, to achieve 250, 500, 750 or 1000 kBq/kg body weight (b.w.). The mice in the control groups are administered either with vehicle only (buffer), non-radioactive antibody (AGC0715) or trastuzumab-Th-227, labelled to a specific activity of 500 kBq/kg (isotype control).
Appearance of tumours will carefully be monitored, and the tumours will be scored (if not large enough to be measured) or measured thrice a week according to the following scheme:
Tumour diameters will be measured in two dimensions using a digital caliper and the volume will be estimated by the following formula: L×W×[…] (Length×Width×½ Width). […] Body weights will be recorded once a week. […]
The mice will be terminated following maximal tumour size of 15 mm diameter. […] In case of observations of adverse clinical signs, these will be recorded as note to files. […]

T1 sequence (P20138 18-364): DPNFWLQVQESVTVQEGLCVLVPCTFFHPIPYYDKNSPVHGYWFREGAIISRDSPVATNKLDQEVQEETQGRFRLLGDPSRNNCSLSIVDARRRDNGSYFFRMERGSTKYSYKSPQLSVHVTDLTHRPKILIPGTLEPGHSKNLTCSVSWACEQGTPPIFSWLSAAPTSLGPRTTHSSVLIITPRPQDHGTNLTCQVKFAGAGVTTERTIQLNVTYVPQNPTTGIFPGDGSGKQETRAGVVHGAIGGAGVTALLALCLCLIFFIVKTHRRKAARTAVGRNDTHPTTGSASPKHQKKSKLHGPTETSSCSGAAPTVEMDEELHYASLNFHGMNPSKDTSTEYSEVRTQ

B1: AGC0715: AGC0700 conjugated to high-solubility ligand (12) (conjugate)
heavy: QVQLVQSGAEVKKPGSSVKVSCKASGYTFTDYNMHWVRQAPGQGLEWIGYIYPYNGGTGYNQKFKSKATITADESTNTAYMELSSLRSEDTAVYYCARGRPAMDYWGQGTLVTVSSASTKGPSVFPLAPSSKSTSGGTAALGCLVKDYFPEPVTVSWNSGALTSGVHTFPAVLQSSGLYSLSSVVTVPSSSLGTQTYICNVNHKPSNTKVDKKVEPKSCDKTHTCPPCPAPELLGGPSVFLFPPKPKDTLMISRTPEVTCVVVDVSHEDPEVKFNWYVDGVEVHNAKTKPREEQYNSTYRVVSVLTVLHQDWLNGKEYKCKVSNKALPAPIEKTISKAKGQPREPQVYTLPPSRDELTKNQVSLTCLVKGFYPSDIAVEWESNGGQPENNYKTTPPVLDSDGSFFLYSKLTVDKSRWQQGNVFSCSVMHEALHNHYTQKSLSLSPG
light: DIQMTQSPSSLSASVGDRVTITCRASESVDNYGISFMNWFQQKPGKAPKLLIYAASNQGSGVPSRFSGSGSGTDFTLTISSLQPDDFATYYCQQSKEVPWTFGQGTKVEIKRTVAAPSVFIFPPSDEQLKSGTASVVCLLNNFYPREAKVQWKVDNALQSGNSQESVTEQDSKDSTYSLSSTLTLSKADYEKHKVYACEVTHQGLSSPVTKSFNRGEC
modifications: chelator AGC0015 (12) conjugated; site not stated; none, one or two chelators on a chain
In the case of B1, the binding affinity entry with CD33 is “comparable to the non-conjugated AGC0700”. Also, the “tumour targeting / build-up of radioactivity” value in the series with HL-60 tumour [1] is “Build-up of radioactivity was seen in the tumour, but in no normal tissue”.

B2: AGC0715-Th-227: AGC0715 antibody-chelator conjugate chelated with Th-227 (conjugate)
heavy: B1 heavy
light: B1 light
modifications: chelator AGC0015 (12) conjugated, chelating Th-227; site not stated
Consider B2, for which the “cellular toxicity (cell viability by ATP)” value in series [2] was “resulted in cellular toxicity”. Moreover, in the series on HL-60 tumour [3], the adverse clinical signs entry was “No adverse clinical sigs”. The “tumour targeting / build-up of radioactivity” value with HL-60 tumour [1] is given as “specific tumour uptake”.

The record behind these values is US9827336B2, “Radio-pharmaceutical complexes” (Bayer AS, priority 2012, dated 2017).
